Results reported in article PMC10148413, “Caf1 regulates the histone methyltransferase activity of Ash1 by sensing unmodified histone H3” (Epigenetics & Chromatin, 2023).

Legend:
[1] = target: T1, Fly Caf1 wild-type (fly, UniProt Q24572 1-430); experiment: pull-down; GST-Ash1 fragments held on GST resin; 200 µL of 0.1 mg/mL purified Caf1 added for 1 h; 150 mM NaCl, 50 mM Tris-HCl (8.0); bound proteins analysed by SDS-PAGE; settings: both partners purified
T1 construct: Caf1 (p55/Nurf55), fly; The same paragraph speaks of 'full-length Caf1' for the AMC co-expression; probably full length here too; also called p55; Nurf55; source: Sf9 cells (baculovirus), purified (Ni-NTA, HiTrap Q HP, Superdex 200); not shown: His6, N-terminal, cleaved
T1 sequence (Q24572 whole entry, the tested form may be a part): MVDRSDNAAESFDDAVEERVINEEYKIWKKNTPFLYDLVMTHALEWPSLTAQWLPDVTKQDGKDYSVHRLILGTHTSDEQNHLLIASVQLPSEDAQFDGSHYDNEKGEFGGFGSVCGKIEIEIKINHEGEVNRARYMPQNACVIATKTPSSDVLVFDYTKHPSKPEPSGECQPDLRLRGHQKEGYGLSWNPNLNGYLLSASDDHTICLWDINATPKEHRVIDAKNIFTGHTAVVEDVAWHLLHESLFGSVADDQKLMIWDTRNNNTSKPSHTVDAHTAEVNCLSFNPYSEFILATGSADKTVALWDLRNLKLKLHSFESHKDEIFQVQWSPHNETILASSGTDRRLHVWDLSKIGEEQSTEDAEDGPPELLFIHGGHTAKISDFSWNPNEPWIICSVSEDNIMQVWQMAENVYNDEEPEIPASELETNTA

[2] = target: T2, Fly Caf1 H3 binding pocket mutant (E235Q/D252K/E279Q) (fly, UniProt Q24572 1-430, E235Q | D252K | E279Q); experiment: as above; settings: both partners purified
T2 construct: In the functional row this mutant stood as a subunit of the AMC complex (AMC mut); source: Sf9 cells (baculovirus), purified (Ni-NTA, HiTrap Q HP, Superdex 200); not shown: His6, N-terminal, cleaved
T2 sequence (Q24572 whole entry E235Q/D252K/E279Q): as the sequence (Q24572 whole entry, the tested form may be a part) above, with E235Q, D252K, E279Q counted along it

B1: GST-CBM (Ash1 Caf1 Binding Motif, 1582–1616) (domain or fragment, fly, UniProt Q9VW15 1582-1616, looked up)
chain: AKLQPLSEKEKKLVRQFNTFLVRNFEKIRRCKAKR
notes: Vector pGEX-4T-1; also called Ash1_C1.6; Ash1_CBM
binding result [1]: binds
binding result [2]: binds
